Substitutions are numbered along the chain they refer to.

Sequences and labels used below:
T1: human CD22 domain5-7-His (human, UniProt P20273 414-687)
T1 construct: also called hCD22 domain5-7-His; not shown: His tag
T1 sequence: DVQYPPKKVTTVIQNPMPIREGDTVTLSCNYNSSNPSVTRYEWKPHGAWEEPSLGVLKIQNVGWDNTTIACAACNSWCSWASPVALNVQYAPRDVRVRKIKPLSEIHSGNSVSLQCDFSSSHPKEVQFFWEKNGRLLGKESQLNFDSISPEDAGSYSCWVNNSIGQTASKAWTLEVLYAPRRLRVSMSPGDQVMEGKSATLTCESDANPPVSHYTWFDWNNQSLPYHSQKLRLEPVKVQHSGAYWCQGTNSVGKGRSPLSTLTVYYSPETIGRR

T2: human CD22-ECD-His protein (human, UniProt P20273 20-687)
T2 construct: Recombinant, from HEK293E cells; also called hCD22-ECD-His; human CD22-His protein; not shown: His tag
T2 sequence: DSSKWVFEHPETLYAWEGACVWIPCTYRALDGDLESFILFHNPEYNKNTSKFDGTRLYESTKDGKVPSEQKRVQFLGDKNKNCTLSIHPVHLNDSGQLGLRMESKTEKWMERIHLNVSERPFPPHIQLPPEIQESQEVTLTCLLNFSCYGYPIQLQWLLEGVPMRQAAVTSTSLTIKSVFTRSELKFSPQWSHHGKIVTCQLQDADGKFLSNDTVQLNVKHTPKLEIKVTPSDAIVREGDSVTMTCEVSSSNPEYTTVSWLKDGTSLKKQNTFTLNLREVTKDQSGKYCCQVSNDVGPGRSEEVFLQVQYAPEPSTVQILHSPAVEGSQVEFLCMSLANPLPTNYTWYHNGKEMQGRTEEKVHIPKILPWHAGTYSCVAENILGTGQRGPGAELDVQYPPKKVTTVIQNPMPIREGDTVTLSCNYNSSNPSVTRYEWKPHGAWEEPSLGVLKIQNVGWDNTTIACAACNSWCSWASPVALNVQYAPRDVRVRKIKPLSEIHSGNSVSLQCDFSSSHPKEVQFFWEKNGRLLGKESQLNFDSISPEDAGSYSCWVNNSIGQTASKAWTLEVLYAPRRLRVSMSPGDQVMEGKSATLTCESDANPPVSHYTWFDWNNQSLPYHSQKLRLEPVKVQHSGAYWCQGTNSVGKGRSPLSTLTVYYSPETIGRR

B1: F2.70.2 (antibody, human IgG1, lambda, V domains shown)
VH: EVQLVESGGGLVKPGGSLKLSCAASGFTFSDYGMNWFRQAPEKGLEWVAYISRGSHTIYYADTVKGRFTISRDNAKNTLFLQMTSLRSNDTAMYYCVRMAGYYAMDYWGQGTSVTVSS
VL: QLVLTQSSSASFSLGASAKLTCTLSSQHSSYIIEWYQQQPLKPPKYVMELKKDGSHSTGDGIPDRFSGSSSGADRYLSISNIQPEDEAIYICGVGDTIKEQFVYVFGGGTKVTVLG
notes: Chimeric IgG1 lambda
B2: F2.127.11 (antibody, human IgG1, lambda, V domains shown)
VH: QVTLKESGPGILQPSQTLSLTCSFSGFSLSTFGMGVGWIRQPSGKGLEWLAHIWWDDDKHYNPALKSRLTISKDTSRNQVFLKIANVDTADGATYFCARDNWVSSLDYWGQGTSVIVSS
VL: B1 VL with L2P, L4I, K19E, S30T, I32T, E49G, G95S
notes: Chimeric IgG1 lambda
B3: F2.104.10 (antibody, human IgG1, lambda, V domains shown)
VH: B1 VH with L11F, K76E, V114L
VL: B1 VL with L50V, P84S
notes: Chimeric IgG1 lambda
B4: F1.161.7 (antibody, human IgG1, kappa, V domains shown)
VH: QVQLQQPGAELVKPGASVKMSCKASGYTFTSYWISWVKQRPGQGLEWIGDIYPGTGSSNYNEKFKSKATLTVDTSSSTAYMQLSSLTSEDSAVYYCARLKFEGIGYWGQGTTLTVSS
VL: QIVLTQSPAIMSASLGEEITLTCSASSSVSYMHWFQQKSGTSPKLLIYSISNLASGVPSRFSGSGSGTFYSLTISSVEAEDAADYYCHQWSSYPWTFGGGTKLEIKR
notes: Chimeric IgG1 kappa
B5: F1.257.3 (antibody, human IgG1, kappa, V domains shown)
VH: QVQLQQSGPELARPGASVKLSCKASGYTFTSYGISWVKQRTGQDLEWIGEIYPKLGTTYYNEKFKDKATLTTDRSSSTAYMALRSLTSEDSAVYFCACPHYYATRGGDYWGQGTTLTVSS
VL: EIVLTQSPATLSVTPGDSVTFSCRASQSISNHLHWYQQKSHESPRLLIRYASQSISGIPSRFSGSGSGTDFTLSLSSVETEDFGVYFCQQSHSWPYTFGGGTKLEIAR
notes: Chimeric IgG1 kappa
B6: F2.121.9 (antibody, human IgG1, lambda, V domains shown)
VH: EVQLVESGGGLVKPGGSLKLSCAASGFTFSDYVMSWIRQTPEKRLEWVATISDAGSYTFYPDNLKGRFTISRDNAKNNLYLQMNHLTSEDTAFYYCAIIYFGNYGGYWGQGTLVTVSV
VL: QAVVTQESALTTSPGGTVVLTCRSNTGAVTTSNYANWVQEKPDHLFTGLIGGTSNRAPGVPVRFSGSLIGDKAALTITGAQTEDDAMYFCALWYSTHWVFGGGTKLTVLG
notes: Chimeric IgG1 lambda
B7: F1.7.6 (antibody, human IgG1, kappa, V domains shown)
VH: EIQLQQSGPELVKPGTSVKVSCKASGYDFTRYNMYWVKQSHGKSLEWIGYIDPYNGDTRYNQKFKGKATLTVDKSSSTAYMHLNSLTSEDSAVYYCEAIYYDMEGYALDYWGQGTSVTVSS
VL: DIVMSQSPSSLAVSVGEKVTMSCKSSQSLLYSNNQKNYLAWYQQKPGQSPKKLIYWASTRESGVPDRLTGSGSGTDFTLTISSVTAEDLAVYYCQQFYSYPWTFGGGTKLEIKR
notes: Chimeric IgG1 kappa
B8: F2.55.1 (antibody, human IgG1, lambda, V domains shown)
VH: QVTLKESGPGILQPSQTLSLTCSFSGFSLSTFPLGVGWIRQPSGKGLEWLAHVWWNDDDYYNPALKSRLTISKDTSNTRVFLSVASVDTAETATYYCARLNWDRWYFDVWGTGTTVTVSS
VL: QLVLTQSSSASFSLGASAKLTCTLSSQHSAYTVEWYQQQPLKPPKYVMELKKDGSHSTGDGIPDRFSGSSSGADRYLSISNIQPEDEAIYICGVGDTVKEQFVFGGGTKVTVLG
notes: Chimeric IgG1 lambda
B9: F2.42.9 (antibody, human IgG1, lambda, V domains shown)
VH: QVTLKESGPGILQPSQTLSLTCSFSGFSLSTFDRGVGWIRQPSGKGLEWLAHIWWNDKKFYNPVLKSRLTISKDTSKNQVFLTIANVDSADTATYSCARIVWDKYYFDYWGQGIPLTVSS
VL: B8 VL with V33I, Y46F, E49D, D64A, S78T, V98I, F102Y
notes: Chimeric IgG1 lambda
B10: F1.245.2 (antibody, human IgG1, kappa, V domains shown)
VH: EVQLQQSGAELVKPGASVKLSCTGSGFNIKDYYIHWVKQRTEQGLEWMGRIDPEDGETEYAPKFQDEATITSDTSSNTAYLQLSSLTYEDTAVYYCAREAAGYFYRGSSYGYFDVWGTGTTVTVSS
VL: DFQMTQTTSFLSASLGDRVTISCSASQDISNYLNWYQQKPDGTVKLLIYYTSSLHSGVPSRFSGSGSGTDYSLTISNLEPEDIATYYCQQYSMLPYTFGGGTKLEMER
notes: Chimeric IgG1 kappa
B11: F1.62.10 (antibody, human IgG1, kappa, V domains shown)
VH: QVQLQQSGPELVKPGASVKISCKASGYEFSSIWMNWVKQRPGEGLEWIGRIFPGDGEINYNEKFKGKATLTADRSSTTAYMQLSSLTSEDSAVYFCAGWRIYYGTYGAMDYWGQGTSVTVSS
VL: DIQMTQITSSLSASLGDRVTISCRASQDIGNYLNWYQQKPDGTVKLLIYYTSRLHSGVPSRFSGSGSRTDYSLTISNLQQEDIATYFCQQGNTLPWTFGGGTKLEIKR
notes: Chimeric IgG1 kappa
B12: F1.280.1 (antibody, human IgG1, kappa, V domains shown)
VH: QIQLVQSGPELKKPGETVKISCKASGYTFTTYGMSWVKQTPGKGLTWMGWINTDSGVPTYADDFKRRFAFSLEASATTAYLQINNLKNEDTATYFCARGGPDYWGQGTTLTVSS
VL: DILLTQSPATLSVTPGETVSLSCRASQSIYKNLHWYHQKSHRSPRLLIKYASDSISGIPSRFTGSGSGTNFTLSINSVKPEDEGIYYCLQGYIVPLTFGAGTKLELKR
notes: Chimeric IgG1 kappa
B13: F1.231.15 (antibody, IgG1, V domains shown)
VH: QVQLQQPGAELVKPGASVKLSCKTSGYTFTIYWMQWVKQRPGRGLEWIGRIDPHSGDTHYNENFTTKVTLTVDETSNTAYMHLSGLTSEDSAVYYCARRDYSYYVLDYWGQGTSVTVSS
VL: DVVLTQTPLSLPVSLGDQASISCRSSQSLVHINGDTYLHWYLQKPGQSPKLLIYTVFNRFSGVPDRFSGSGSGTDFTLKISRVEAEDLGAYFCSQSTHVPYTFGGGTKLEIKR
notes: Chimeric IgG1 kappa

One experiment deals with T1, human CD22 domain5-7-His. The experiment is described as follows: ELISA, plate coated with human CD22 domain5-7-His.
On to B1, for which the binding result is reported as “no binding”.

For the molecule B2, the binding result is “no binding”.

For B3, the binding result is “no binding”.

On to B4, for which the binding result was “no binding”.

As to B5, the binding result was “no binding”.

Take B6: the binding result is recorded as “no binding”.

In the case of B7, the binding result is given as “no binding”.

Take B8: the binding result is recorded as “no binding”.

In the case of B9, the binding result is reported as “no binding”.

Consider B10, for which the binding result is recorded as “no binding”.

As for B11, the binding result is recorded as “no binding”.

For B12, the binding result is listed as “no binding”.

In the case of B13, the binding result is given as “no binding”.

A further experiment concerns the target T2, human CD22-ECD-His protein. The experiment is described as follows: SPR (Biacore), antibody captured on Protein A chip, CD22-ECD-His in solution. The method, then: Sample buffer and running buffer were HBS-EP+(10 mM HEPES, 150 mM NaCl, 3 mM EDTA, 0.05% surfactant P20) (GE Healthcare; BR-1006-69). The flow-through cell was set to 25° C. The sample block was set to 16° C. Both were pretreated with the running buffer. In each cycle, the antibody to be tested was first captured with a Protein A chip, then a single concentration of CD22 antigen protein was injected. The binding and dissociation process of the antibody and the antigen protein was recorded, and finally Glycine pH 1.5 (GE Healthcare; BR-1003-54) was used to complete chip regeneration. Binding was measured by injecting different concentrations of recombinant human CD22-ECD His protein in solution for 240 s with a flow rate of 30 μL/min. The concentration started from 200 nM (see the detailed results for the actual concentration in the test) and was diluted at 1:1, making a total of 5 concentrations. The dissociation phase was monitored for up to 600 s and was triggered by switching from sample solution to running buffer. The surface was regenerated by washing with a 10 mM of glycine solution (pH 1.5) for 30 s at a flow rate of 30 μL/min. Bulk refractive index difference was corrected by subtracting the response obtained from the goat anti-human Fc surface. Blank injection was also subtracted (=double reference). For calculation of apparent KD and other kinetic parameters, Langmuir 1:1 model was used.
The molecule B1 gave a Kd of 10.7 nM, a dissociation rate constant (koff) of 0.000744 s⁻¹ and an on-rate (kon) of 69500 M⁻¹ s⁻¹.

In turn, B2 registered a Kd of 2.93 nM, a koff of 0.00066 s⁻¹ and a kon of 226000 M⁻¹ s⁻¹.

For B3, the affinity, expressed as Kd, was 8.54 nM; the koff was found to be 0.00061 s⁻¹; the kon was found to be 71400 M⁻¹ s⁻¹.

B4 yielded a Kd of 5.88 nM, a koff of 0.00118 s⁻¹ and a kon of 201000 M⁻¹ s⁻¹.

The molecule B5 had a Kd of 0.417 nM, a koff of 0.000113 s⁻¹ and a kon of 270000 M⁻¹ s⁻¹.

B6 showed a Kd of 80 nM, a koff of 0.000393 s⁻¹ and a kon of 4910 M⁻¹ s⁻¹.

As to B7, the Kd was found to be 1.7 nM, the off-rate (koff) amounted to 0.000203 s⁻¹ and the kon amounted to 120000 M⁻¹ s⁻¹.

In turn, B8 registered a Kd of 0.586 nM, a koff of 7.42e-05 s⁻¹ and a kon of 127000 M⁻¹ s⁻¹.

Take B9: binding was characterised by a dissociation constant (Kd) of 10 nM, the koff was found to be 0.000663 s⁻¹ and the kon worked out at 66100 M⁻¹ s⁻¹.

On to B10, for which the Kd was determined as 0.458 nM, the koff was 0.00119 s⁻¹ and the kon was found to be 2.6e+06 M⁻¹ s⁻¹.

Consider B11, for which the Kd was 29.3 nM, the koff was determined as 0.000399 s⁻¹ and the kon stood at 13600 M⁻¹ s⁻¹.

B12: the Kd is 6.73 nM, the koff is 0.000423 s⁻¹ and the kon was found to be 62900 M⁻¹ s⁻¹.

B13 showed a Kd of 44.8 nM. In other words, the double-digit nanomolar range.

Values taken from patent US20240084003A1 (SIMCERE ZAIMING PHARMACEUTICAL, published 2024).
